One experiment concerns the target T1, CD40L (UniProt P29965 1-261, limits assumed).
T1 construct: whole, on cells; also called cytokine over-expressing Expi293 cells (CD40L)
T1 sequence (looked up): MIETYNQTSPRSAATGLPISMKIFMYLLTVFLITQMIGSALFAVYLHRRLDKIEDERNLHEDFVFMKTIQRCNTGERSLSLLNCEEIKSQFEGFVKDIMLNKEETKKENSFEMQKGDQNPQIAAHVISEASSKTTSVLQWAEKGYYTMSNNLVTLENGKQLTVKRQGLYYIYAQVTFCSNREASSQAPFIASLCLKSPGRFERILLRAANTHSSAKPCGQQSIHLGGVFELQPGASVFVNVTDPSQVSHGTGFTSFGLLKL
The experiment in a line: flow cytometry, 100 nM IgG, CD40L over-expressing Expi293 cells over parent Expi293 cells.

In experiment [1] the target is T2, TSLP on over-expressing Expi293 cells (UniProt Q969D9 29-159, limits assumed).
T2 construct: whole, on cells; Target of the flow cytometry assay; also called cytokine over-expressing Expi293 cells
The experiment in a line: flow cytometry, 100 nM, TSLP over-expressing Expi293 over parent cells.
Method: (§1) All incubations and washes were in buffer containing PBS+1% BSA. MFI Ratio is defined by the mean fluorescence intensity (MFI) of the cytokine over-expressing Expi293 cell over the Expi293 parent cell. […] EC50 was calculated in GraphPad Prism.

The target in experiment [2] is T3, IL1RL2 over-expressed on Expi293 cells (UniProt Q9HB29 20-575, limits assumed).
T3 construct: whole, on cells; Target of the flow cytometry assay; MFI ratio is over-expressing cells over parent cells
T3 sequence (looked up): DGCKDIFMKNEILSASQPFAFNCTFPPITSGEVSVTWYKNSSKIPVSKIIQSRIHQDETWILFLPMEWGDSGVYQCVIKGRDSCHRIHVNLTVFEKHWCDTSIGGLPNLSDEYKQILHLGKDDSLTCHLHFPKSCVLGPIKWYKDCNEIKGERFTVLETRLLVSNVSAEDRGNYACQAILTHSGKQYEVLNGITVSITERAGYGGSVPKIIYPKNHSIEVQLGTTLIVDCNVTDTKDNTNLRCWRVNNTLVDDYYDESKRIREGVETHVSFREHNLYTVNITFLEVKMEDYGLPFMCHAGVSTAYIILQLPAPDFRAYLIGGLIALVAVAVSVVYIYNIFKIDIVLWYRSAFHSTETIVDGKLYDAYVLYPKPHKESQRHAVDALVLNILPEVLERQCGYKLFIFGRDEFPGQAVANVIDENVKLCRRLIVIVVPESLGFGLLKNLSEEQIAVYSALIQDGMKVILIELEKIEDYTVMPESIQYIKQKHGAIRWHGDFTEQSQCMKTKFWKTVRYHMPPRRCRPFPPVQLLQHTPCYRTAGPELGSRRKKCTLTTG
Put plainly: flow cytometry, over-expressing Expi293 vs parent cells, 100 nM antibody.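 Note: ratio is mean fluorescence intensity on over-expressing Expi293 cells divided by that measured on parental Expi293 cells.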
Method: as §1

For another experiment, the target named is T4, IL1RL2 (UniProt Q9HB29 20-335, limits assumed).
T4 construct: Soluble analyte of the SPR runs
T4 sequence (looked up): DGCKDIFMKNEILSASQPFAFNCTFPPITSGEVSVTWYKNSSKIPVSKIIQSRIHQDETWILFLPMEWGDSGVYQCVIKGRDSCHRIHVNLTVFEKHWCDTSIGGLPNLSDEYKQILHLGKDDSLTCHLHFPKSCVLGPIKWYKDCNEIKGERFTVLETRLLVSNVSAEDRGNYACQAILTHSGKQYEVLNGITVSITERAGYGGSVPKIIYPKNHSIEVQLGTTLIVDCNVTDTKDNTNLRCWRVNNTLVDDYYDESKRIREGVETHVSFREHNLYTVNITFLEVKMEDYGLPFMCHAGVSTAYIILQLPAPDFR
Put plainly: SPR (Carterra LSA), antibody immobilised, 1:1 model.

Where a chain is given by its changes, count along the chain named. Bounds are passed on as bounds.

Method for CD40L: as §1

B1: CD40L-381 (antibody, V domains shown)
VH: EVQLLESGGGLVQPGGSLRLSCAASGFTFSSYDMNWVRQAPGKGLEWVAAISGSGGTTYYADSVKGRFTISRDNSKNTLYLQMNSLRAEDTAVYYCARGVYESMTGTYGYVDWFDPWGQGTLVTVSS
VL: DIQMTQSPSSLSASVGDRVTITCRASQSIPTYLNWYQQKPGKAPKLLIYAAANLQSGVPSRFSGSGSGTDFTLTISSLQPEDFATYYCQQSYATPFTFGGGTKVEIK
B1: the “100 nM FACS (MFI Ratio)” value with CD40L amounted to 1.7 MFI ratio.

B2: CD40L-383 (antibody, V domains shown)
VH: EVQLLESGGGLVQPGGSLRLSCAASGFTFSNYAMSWVRQAPGKGLEWVSAITGSGSTTYYADSVKGRFTISRDNSKNTLYLQMNSLRAEDTAVYYCARAHDYDSMLMDYWGQGTLVTVSS
VL: B1 VL with S28Y, P30N, T31N, A51S, A52S, N53T, S56R, Y92F, A93S, F96I
For B2, in the experiment with CD40L, the “100 nM FACS (MFI Ratio)” value worked out at 24.1 MFI ratio.

B3: CD40L-434 (antibody, V domains shown)
VH: EVQLLESGGGLVQPGGSLRLSCAASGFGFSSYAMSWVRQAPGKGLEWVSAISGGGGSIYYADSVKGRFTISRDNSKNTLYLQMNSLRAEDTAVYYCARHGGYYYYYMDVWGQGTLVTVSS
VL: B1 VL with I29V, P30S, T31R, Y32F, A52S, N53T, S56P, A93E, F96L
For B3, in the experiment with CD40L, the “100 nM FACS (MFI Ratio)” value came to 6.1 MFI ratio.

B4: CD40L-403 (antibody, V domains shown)
VH: EVQLLESGGGLVQPGGSLRLSCAASGFTFRNYGMNWVRQAPGKGLEWVSSISGSGDYTYYADSVKGRFTISRDNSKNTLYLQMNSLRAEDTAVYYCARGLTYDILPRFDSWGQGTLVTVSS
VL: B1 VL with S28T, P30S, T31P, A52S, N53T, S56A, G64S, A93S, T94L, F96L
As for B4, the “100 nM FACS (MFI Ratio)” value with CD40L came to 3.1 MFI ratio.

B5: CD40L-382 (antibody, V domains shown)
VH: EVQLLESGGGLVQPGGSLRLSCAASGFGFSSYAMSWVRQAPGKGLEWVSAISGGGGSIYYADSVKGRFTISRDNSKNTLYLQMNSLRAEDTAVYYCATDYGDYDRLNFDLWGQGTLVTVSS
VL: B1 VL with P30G, Y32F, A50G, A51T, A52S, S91G, A93R, F96L
For the molecule B5, in the experiment with CD40L, the “100 nM FACS (MFI Ratio)” value was 10.7 MFI ratio.

B6: CD40L-414 (antibody, V domains shown)
VH: B5 VH with G28T, S31N, S52T, G54S, G56S, S57T, I58T
VL: B1 VL with P30G, Y32F, A50G, A51T, A52S, S91G, A93R, F96L
For B6, the “100 nM FACS (MFI Ratio)” value with CD40L amounted to 11.2 MFI ratio.

B7: CD40L-398 (antibody, V domains shown)
VH: B2 VH
VL: B1 VL with S9F, S28N, P30L, A50G, A52S, N53T, Q55R, A93R, T94L, F96L
Take B7: the “100 nM FACS (MFI Ratio)” value with CD40L is 45.1 MFI ratio.

B8: TSLP-31 (VHH)
VHH: EVQLVESGGGLVQPGGSLRLSCAASGNIFANNIMGWFRQAPGKERELVSAIFSDGSTYYADSVKGRFTISADNSKNTAYLQMNSLKPEDTAVYYCARDDIVGAWSLDCWGQGPLMTVSS
notes: VHH-Fc (IgG2 Fc); not shown: IgG2 Fc of the VHH-Fc format
As to B8, the “100 nM (MFI Ratio)” value in experiment [1] turned out to be 18.4 MFI ratio.

B9: TSLP-34 (VHH)
VHH: B8 VHH with N27H, D99A, W104A, C108Y, P113T, M115V
notes: as for B8
B9: the “100 nM (MFI Ratio)” value in experiment [1] was 16.5 MFI ratio.

B10: TSLP-33 (VHH)
VHH: EVQLVESGGGLVQPGGSLRLSCAASGFSLDYYGMGWFRQAPGKEREFVAAIHWNGDSTLYADSVKGRFTIIADNSKNTAYLQMNSLKPEDTAVYYCARGFSGWFPFDYWGQGTLVTVSS
notes: as for B8
In the case of B10, in experiment [1], the “100 nM (MFI Ratio)” value came to 21 MFI ratio.

B11: IL1RL2-11 (VHH)
VHH: EVQLVESGGGLVQPGGSLRLSCAASGRTFSRYAMGWFRQAPGKEREFVAAINWSGARTYYADSVKGRFTISADNSKNTAYLQMNSLKPEDTAVYYCAVSQPLNYYTYYDARRYDWGQGTLVTVSS
notes: VHH-Fc based on IgG2 Fc
What is called Kd is the equilibrium constant for the complex coming apart. Lower therefore signals higher affinity. As usually defined, the koff is the rate constant with which the complex falls apart. Read a high koff as fast dissociation. What is called kon is a measure of how fast the partners come together. A low value points to slower complex formation. B11: in experiment [2], the “100 nM FACS (MFI Ratio)” value is 22.4. In the experiment with IL1RL2, this molecule yielded a dissociation constant Kd of 8.48 nM, a koff of 0.000342 s⁻¹ and a kon of 40400 M⁻¹ s⁻¹.

B12: IL1RL2-29 (VHH)
VHH: B11 VHH with R27G, R31A, A33T, N52S, A56G, R57S
notes: VHH-Fc based on IgG2 Fc
Regarding B12, the “100 nM FACS (MFI Ratio)” value in experiment [2] stood at 5.46. Besides, in the experiment with IL1RL2, binding was put at a Kd of 10.5 nM, the koff came out at 0.000279 s⁻¹ and the on-rate (kon) came to 26500 M⁻¹ s⁻¹.

B13: IL1RL2-23 (VHH)
VHH: B11 VHH with R27P, R31T, N52S, R57N
notes: VHH-Fc based on IgG2 Fc
For the molecule B13, the “100 nM FACS (MFI Ratio)” value in experiment [2] was found to be 13.9. In the experiment with IL1RL2, this molecule showed a dissociation constant (Kd) of 8.13 nM, a koff of 0.000124 s⁻¹ and an association rate constant (kon) of 15300 M⁻¹ s⁻¹.

B14: IL1RL2-24 (VHH)
VHH: EVQLVESGGGLVQPGGSLRLSCAASGRTFSTYDMGWFRQAPGKERELVASIVWIGGRTYYADSVKGRFTISADNSKNTAYLQMNSLKPEDTAVYYCADVNGDWGQGTLVTVSS
notes: VHH-Fc based on IgG2 Fc
For the molecule B14, the “100 nM FACS (MFI Ratio)” value in experiment [2] turned out to be 18.1. In the experiment with IL1RL2, this molecule came in with a dissociation constant (Kd) not above 0.103 nM, an off-rate (koff) not above 1e-05 s⁻¹ and a kon of 97200 M⁻¹ s⁻¹.

B15: IL1RL2-30 (VHH)
VHH: EVQLVESGGGLVQPGGSLRLSCAASGGTLRGFDIGWFRQAPGKEREFVAAVTWSGGSTNYADSVKGRFTISADNSKNTAYLQMNSLKPEDTAVYYCADVNGDWGQGTLVTVSS
notes: VHH-Fc based on IgG2 Fc
Consider B15, for which the “100 nM FACS (MFI Ratio)” value in experiment [2] turned out to be 10.2. Besides, in the experiment with IL1RL2, the Kd turned out to be 2.14 nM, the koff was determined as 0.000194 s⁻¹ and the kon was 90800 M⁻¹ s⁻¹.

B16: TSLP-27 (VHH)
VHH: EVQLVESGGGLVQPGGSLRLSCAASGSTFSDRAMGWFRQAPGKERELVSAIFSDGSTLYADSVKGRFTISADNSKNTAYLQMNSLKPEDTAVYYCASDVGMDVWGQGTLVTVSS
notes: as for B8
For B16, the “100 nM (MFI Ratio)” value in experiment [1] worked out at 0.6 MFI ratio.

B17: CD40L-416 (antibody, V domains shown)
VH: EVQLLESGGGLVQPGGSLRLSCAASGFTFSNYAMSWVRQAPGKGLEWVSAISGSGHSTYYADSVKGRFTISRDNSKNTLYLQMNSLRAEDTAVYYCARGGGYYNPLLFDYWGQGTLVTVSS
VL: DIQMTQSPSSLSASVGDRVTITCRASQYISTYLNWYQQKPGKAPKLLIYAASTLETGVPSRFSGSGSGTDFTLTISSLQPEDFATYYCQQSYSIPPVTFGGGTKVEIK
As for B17, in the experiment with CD40L, the “100 nM FACS (MFI Ratio)” value amounted to 3.4 MFI ratio.

B18: IL1RL2-2 (VHH)
VHH: EVQLVESGGGLVQPGGSLRLSCAASGFTRSYYTMGWFRQAPGKERELVASITRGGGTTYADSVKGRFTISADNSKNTAYLQMNSLKPEDTAVYYCADVNGDWGQGTLVTVSS
notes: VHH-Fc based on IgG2 Fc
In the case of B18, in experiment [2], the “100 nM FACS (MFI Ratio)” value turned out to be 9.22. In the experiment with IL1RL2, this molecule had a Kd of 10.2 nM, a dissociation rate constant (koff) of 0.000784 s⁻¹ and a kon of 76900 M⁻¹ s⁻¹.

B19: IL1RL2-31 (VHH)
VHH: B18 VHH with F27R, R29F, S30D, Y31S, T33D, R53F, G56V, T58N
notes: VHH-Fc based on IgG2 Fc
Regarding B19, in experiment [2], the “100 nM FACS (MFI Ratio)” value worked out at 7.16. Moreover, in the experiment with IL1RL2, binding was characterised by a dissociation constant (Kd) of 3.82 nM, the off-rate (koff) was determined as 0.000318 s⁻¹ and the kon was found to be 83300 M⁻¹ s⁻¹.

B20: TSLP-28 (VHH)
VHH: EVQLVESGGGLVQPGGSLRLSCAASGFTFDDYEMGWFRQAPGKEREFVGSIGCDGSTLYADSVKGRFTISADNSKNTAYLQMNSLKPEDTAVYYCTTDCDDHCGWGQGTLVTVSS
notes: as for B8
As to B20, the “100 nM (MFI Ratio)” value in experiment [1] turned out to be 0.7 MFI ratio.

B21: CD40L-419 (antibody, V domains shown)
VH: B2 VH
VL: DIQMTQSPSSLSASVGDRVTITCRAGQSISSYLNWYQQKPGKAPKLLIYASSTLQRGVPSRFSGSGSGTDFTLTISSLQPEDFATYYCQQSHSVPLTFGGGTKVEIK
As to B21, in the experiment with CD40L, the “100 nM FACS (MFI Ratio)” value stood at 18.6 MFI ratio.

The record behind these values is US20230265179A1 (TWIST BIOSCIENCE, published 2023).
